T1: human IL-2 receptor (IL-2Rα, IL-2Rβ, IL-2Rγ) (human, UniProt P01589 22-272; P14784 27-551; P31785 23-369)
T1 sequence (looked up) 1: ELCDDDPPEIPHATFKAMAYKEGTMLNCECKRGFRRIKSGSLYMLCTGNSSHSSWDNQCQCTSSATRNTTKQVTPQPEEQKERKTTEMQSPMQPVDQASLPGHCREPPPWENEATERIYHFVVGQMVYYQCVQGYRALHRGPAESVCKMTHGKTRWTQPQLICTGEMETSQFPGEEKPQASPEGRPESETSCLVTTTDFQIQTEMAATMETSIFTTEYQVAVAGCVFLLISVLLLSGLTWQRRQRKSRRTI
T1 sequence (looked up) 2: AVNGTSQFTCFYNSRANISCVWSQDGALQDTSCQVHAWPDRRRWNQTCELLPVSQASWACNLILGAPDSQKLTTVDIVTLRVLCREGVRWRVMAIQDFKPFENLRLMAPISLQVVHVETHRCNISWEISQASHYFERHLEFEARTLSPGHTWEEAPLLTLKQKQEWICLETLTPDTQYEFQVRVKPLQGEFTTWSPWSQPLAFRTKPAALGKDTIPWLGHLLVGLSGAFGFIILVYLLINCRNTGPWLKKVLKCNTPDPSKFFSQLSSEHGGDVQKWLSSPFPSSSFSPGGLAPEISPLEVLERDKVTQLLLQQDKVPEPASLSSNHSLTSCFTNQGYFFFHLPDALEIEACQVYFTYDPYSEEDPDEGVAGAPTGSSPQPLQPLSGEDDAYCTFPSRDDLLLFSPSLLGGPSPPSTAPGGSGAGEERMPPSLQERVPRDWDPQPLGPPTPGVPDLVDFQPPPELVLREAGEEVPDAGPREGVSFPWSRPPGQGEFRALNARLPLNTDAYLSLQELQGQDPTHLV
T1 sequence (looked up) 3: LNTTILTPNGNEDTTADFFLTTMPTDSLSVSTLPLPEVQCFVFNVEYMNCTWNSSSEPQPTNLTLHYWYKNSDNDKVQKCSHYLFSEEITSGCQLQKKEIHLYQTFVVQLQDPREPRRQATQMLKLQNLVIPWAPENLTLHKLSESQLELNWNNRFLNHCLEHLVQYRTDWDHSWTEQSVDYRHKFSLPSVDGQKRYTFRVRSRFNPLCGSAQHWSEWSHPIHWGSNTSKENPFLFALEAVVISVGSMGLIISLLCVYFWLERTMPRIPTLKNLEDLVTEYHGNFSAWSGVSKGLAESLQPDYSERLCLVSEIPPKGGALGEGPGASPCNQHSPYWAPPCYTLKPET

B1: PD-L1(mut2)-Fc (Fc fusion)
chain 1: FTVTVPKDLYVVEYGSNMTIECKFPVEKQLDLAALQVYWMMEDKNIIQFVHGEEDLKVQHSSYRQRARLLKDQLSLGNAALQITDVKLQDAGVYTCLIAYKGADYKRITVKVNAPYNKINQRILVVDPVTSEHELTCQAEGYPKAEVIWTSSDHQVLSGKTTTTNSKREEKLFNVTSTLRINTTTNEIFYCTFRRLDPEENHTAELVIPELPLAHPPNERGGGGSGGGDKTHTCPPCPAPEDEGGPSVFLFPPKPKDTLMISRTPEVTCVVVDVSHEDPEVKFNWYVDGVEVHNAKTKPREEQYNSTYRVVSVLTVLHQDWLNGKEYKCKVSNKALPAPIEKTISKAKGQPREPQVYVYPPSREEMTKNQVSLTCLVKGFYPSDIAVEWESNGQPENNYKTTPPVLDEDGSFALVSKLTVDKSRWQQGNVFSCSVMHEALHNHYTQKSLSLSPGK
chain 2: FTVTVPKDLYVVEYGSNMTIECKFPVEKQLDLAALQVYWMMEDKNIIQFVHGEEDLKVQHSSYRQRARLLKDQLSLGNAALQITDVKLQDAGVYTCLIAYKGADYKRITVKVNAPYNKINQRILVVDPVTSEHELTCQAEGYPKAEVIWTSSDHQVLSGKTTTTNSKREEKLFNVTSTLRINTTTNEIFYCTFRRLDPEENHTAELVIPELPLAHPPNERGGGGSGGGDKTHTCPPCPAPEKKGGPSVFLFPPKPKDTLMISRTPEVTCVVVDVSHEDPEVKFNWYVDGVEVHNAKTKPREEQYNSTYRVVSVLTVLHQDWLNGKEYKCKVSNKALPAPIEKTISKAKGQPREPQVYVLPPSREEMTKNQVSLLCLVKGFYPSDIAVEWESNGQPENRYMTWPPVLDSDGSFFLYSKLTVDKSRWQQGNVFSCSVMHEALHNHYTQKSLSLSPGK
B2: IL-2(L18R/Q22E/R38D/K43E/E61R)/PD-L1(mut2)-Fc (Fc fusion)
chain 1: FTVTVPKDLYVVEYGSNMTIECKFPVEKQLDLAALQVYWMMEDKNIIQFVHGEEDLKVQHSSYRQRARLLKDQLSLGNAALQITDVKLQDAGVYTCLIAYKGADYKRITVKVNAPYNKINQRILVVDPVTSEHELTCQAEGYPKAEVIWTSSDHQVLSGKTTTTNSKREEKLFNVTSTLRINTTTNEIFYCTFRRLDPEENHTAELVIPELPLAHPPNERGGGGSGGGDKTHTCPPCPAPEDEGGPSVFLFPPKPKDTLMISRTPEVTCVVVDVSHEDPEVKFNWYVDGVEVHNAKTKPREEQYNSTYRVVSVLTVLHQDWLNGKEYKCKVSNKALPAPIEKTISKAKGQPREPQVYVYPPSREEMTKNQVSLTCLVKGFYPSDIAVEWESNGQPENNYKTTPPVLDEDGSFALVSKLTVDKSRWQQGNVFSCSVMHEALHNHYTQKSLSLSPGK
chain 2: FTVTVPKDLYVVEYGSNMTIECKFPVEKQLDLAALQVYWMMEDKNIIQFVHGEEDLKVQHSSYRQRARLLKDQLSLGNAALQITDVKLQDAGVYTCLIAYKGADYKRITVKVNAPYNKINQRILVVDPVTSEHELTCQAEGYPKAEVIWTSSDHQVLSGKTTTTNSKREEKLFNVTSTLRINTTTNEIFYCTFRRLDPEENHTAELVIPELPLAHPPNERGGGSGAPTSSSTKKTQLQLEHLRLDLEMILNGINNYKNPKLTDMLTFEFYMPKKATELKHLQCLERELKPLEEVLNLAQSKNFHLRPRDLISNINVIVLELKGSETTFMCEYADETATIVEFLNRWITFCQSIISTLTGGGGSGGGDKTHTCPPCPAPEKKGGPSVFLFPPKPKDTLMISRTPEVTCVVVDVSHEDPEVKFNWYVDGVEVHNAKTKPREEQYNSTYRVVSVLTVLHQDWLNGKEYKCKVSNKALPAPIEKTISKAKGQPREPQVYVLPPSREEMTKNQVSLLCLVKGFYPSDIAVEWESNGQPENRYMTWPPVLDSDGSFFLYSKLTVDKSRWQQGNVFSCSVMHEALHNHYTQKSLSLSPGK
B3: IL-2(R38D/K43E/E61R/Q126T)/PD-L1(mut2)-Fc (Fc fusion)
chain 1: FTVTVPKDLYVVEYGSNMTIECKFPVEKQLDLAALQVYWMMEDKNIIQFVHGEEDLKVQHSSYRQRARLLKDQLSLGNAALQITDVKLQDAGVYTCLIAYKGADYKRITVKVNAPYNKINQRILVVDPVTSEHELTCQAEGYPKAEVIWTSSDHQVLSGKTTTTNSKREEKLFNVTSTLRINTTTNEIFYCTFRRLDPEENHTAELVIPELPLAHPPNERGGGGSGGGDKTHTCPPCPAPEDEGGPSVFLFPPKPKDTLMISRTPEVTCVVVDVSHEDPEVKFNWYVDGVEVHNAKTKPREEQYNSTYRVVSVLTVLHQDWLNGKEYKCKVSNKALPAPIEKTISKAKGQPREPQVYVYPPSREEMTKNQVSLTCLVKGFYPSDIAVEWESNGQPENNYKTTPPVLDEDGSFALVSKLTVDKSRWQQGNVFSCSVMHEALHNHYTQKSLSLSPGK
chain 2: FTVTVPKDLYVVEYGSNMTIECKFPVEKQLDLAALQVYWMMEDKNIIQFVHGEEDLKVQHSSYRQRARLLKDQLSLGNAALQITDVKLQDAGVYTCLIAYKGADYKRITVKVNAPYNKINQRILVVDPVTSEHELTCQAEGYPKAEVIWTSSDHQVLSGKTTTTNSKREEKLFNVTSTLRINTTTNEIFYCTFRRLDPEENHTAELVIPELPLAHPPNERGGGSGAPTSSSTKKTQLQLEHLLLDLQMILNGINNYKNPKLTDMLTFEFYMPKKATELKHLQCLERELKPLEEVLNLAQSKNFHLRPRDLISNINVIVLELKGSETTFMCEYADETATIVEFLNRWITFCTSIISTLTGGGGSGGGDKTHTCPPCPAPEKKGGPSVFLFPPKPKDTLMISRTPEVTCVVVDVSHEDPEVKFNWYVDGVEVHNAKTKPREEQYNSTYRVVSVLTVLHQDWLNGKEYKCKVSNKALPAPIEKTISKAKGQPREPQVYVLPPSREEMTKNQVSLLCLVKGFYPSDIAVEWESNGQPENRYMTWPPVLDSDGSFFLYSKLTVDKSRWQQGNVFSCSVMHEALHNHYTQKSLSLSPGK
B4: IL-2(R38D/K43E/E61R)/PD-L1(mut2)-Fc (Fc fusion)
chain 1: FTVTVPKDLYVVEYGSNMTIECKFPVEKQLDLAALQVYWMMEDKNIIQFVHGEEDLKVQHSSYRQRARLLKDQLSLGNAALQITDVKLQDAGVYTCLIAYKGADYKRITVKVNAPYNKINQRILVVDPVTSEHELTCQAEGYPKAEVIWTSSDHQVLSGKTTTTNSKREEKLFNVTSTLRINTTTNEIFYCTFRRLDPEENHTAELVIPELPLAHPPNERGGGGSGGGDKTHTCPPCPAPEDEGGPSVFLFPPKPKDTLMISRTPEVTCVVVDVSHEDPEVKFNWYVDGVEVHNAKTKPREEQYNSTYRVVSVLTVLHQDWLNGKEYKCKVSNKALPAPIEKTISKAKGQPREPQVYVYPPSREEMTKNQVSLTCLVKGFYPSDIAVEWESNGQPENNYKTTPPVLDEDGSFALVSKLTVDKSRWQQGNVFSCSVMHEALHNHYTQKSLSLSPGK
chain 2: FTVTVPKDLYVVEYGSNMTIECKFPVEKQLDLAALQVYWMMEDKNIIQFVHGEEDLKVQHSSYRQRARLLKDQLSLGNAALQITDVKLQDAGVYTCLIAYKGADYKRITVKVNAPYNKINQRILVVDPVTSEHELTCQAEGYPKAEVIWTSSDHQVLSGKTTTTNSKREEKLFNVTSTLRINTTTNEIFYCTFRRLDPEENHTAELVIPELPLAHPPNERGGGSGAPTSSSTKKTQLQLEHLLLDLQMILNGINNYKNPKLTDMLTFEFYMPKKATELKHLQCLERELKPLEEVLNLAQSKNFHLRPRDLISNINVIVLELKGSETTFMCEYADETATIVEFLNRWITFCQSIISTLTGGGGSGGGDKTHTCPPCPAPEKKGGPSVFLFPPKPKDTLMISRTPEVTCVVVDVSHEDPEVKFNWYVDGVEVHNAKTKPREEQYNSTYRVVSVLTVLHQDWLNGKEYKCKVSNKALPAPIEKTISKAKGQPREPQVYVLPPSREEMTKNQVSLLCLVKGFYPSDIAVEWESNGQPENRYMTWPPVLDSDGSFFLYSKLTVDKSRWQQGNVFSCSVMHEALHNHYTQKSLSLSPGK

molecular target: T1, human IL-2 receptor (IL-2Rα, IL-2Rβ, …); assay: cell-based or functional assay

Which “IL-2 biological activity, HEK-IL-2” value does the source give for B1 here?
The value was under 0.1%.

What about the “IL-2 biological activity, HEK-IL-2-PD-1” value of the same binder?
The value was under 0.1%.

Which “IL-2 biological activity, HEK-IL-2” value does the source give for B2 here?
Its value is 4%.

What about the “IL-2 biological activity, HEK-IL-2-PD-1” value of the same binder?
The value was 35%.

Which results are given for B3?
IL-2 biological activity, HEK-IL-2: 2%; IL-2 biological activity, HEK-IL-2-PD-1: 20%

Which “IL-2 biological activity, HEK-IL-2” value does the source give for B4 here?
Its value is 16%.

What about the “IL-2 biological activity, HEK-IL-2-PD-1” value of the same binder?
The value was 76%.
